Assay results reported in IntAct's records for PubMed 15361138.

B1: Transcription factor MYB75 (Arabidopsis thaliana (Mouse-ear cress)), Q9FE25 (parent)
chain: MEGSSKGLRKGAWTTEEDSLLRQCINKYGEGKWHQVPVRAGLNRCRKSCRLRWLNYLKPSIKRGKLSSDEVDLLLRLHRLLGNRWSLIAGRLPGRTANDVKNYWNTHLSKKHEPCCKIKMKKRDITPIPTTPALKNNVYKPRPRSFTVNNDCNHLNAPPKVDVNPPCLGLNINNVCDNSIIYNKDKKKDQLVNNLIDGDNMWLEKFLEESQEVDILVPEATTTEKGDTLAFDVDQLWSLFDGETVKFD
partner: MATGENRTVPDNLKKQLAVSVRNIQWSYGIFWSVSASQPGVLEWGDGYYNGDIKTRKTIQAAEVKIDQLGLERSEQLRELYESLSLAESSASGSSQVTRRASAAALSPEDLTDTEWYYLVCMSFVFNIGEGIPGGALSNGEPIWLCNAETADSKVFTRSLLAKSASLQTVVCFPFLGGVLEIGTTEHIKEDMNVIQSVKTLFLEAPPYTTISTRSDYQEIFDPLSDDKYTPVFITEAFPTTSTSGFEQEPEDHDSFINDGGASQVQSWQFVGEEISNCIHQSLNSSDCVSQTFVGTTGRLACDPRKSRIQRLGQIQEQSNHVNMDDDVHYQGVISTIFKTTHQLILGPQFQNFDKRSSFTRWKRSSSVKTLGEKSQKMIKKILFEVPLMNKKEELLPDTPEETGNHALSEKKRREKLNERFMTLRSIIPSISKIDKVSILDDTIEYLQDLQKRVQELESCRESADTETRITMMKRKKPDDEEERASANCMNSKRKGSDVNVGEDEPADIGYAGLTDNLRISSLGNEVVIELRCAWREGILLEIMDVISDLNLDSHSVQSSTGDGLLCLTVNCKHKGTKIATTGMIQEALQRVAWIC

Variants of: B1
Settings: with egl1_arath BHLH2, Q9CAD0

Effect of a mutation on the interaction, decreasing interaction:
R79S
R91A
R91D
L80A
R76K
R76E
L73I
